This assay concerns the target N1-CA09-sNAp, stabilized neuraminidase protein of A/California/04/2009 (H1N1) (influenza A virus A/California/04/2009 (H1N1)) (UniProt C3W5S3). The assay is described as follows: cryo-EM structure.

We go through 1 substance from doi:10.1101/2024.11.27.625426 (bioRxiv, 2024).

The substance “N1-CA09-sNAp, stabilized neuraminidase protein of A/California/04/2009 (H1N1) (from UniProt C3W5S3 1-469) (enzyme)” returned a stoichiometry N of 4 protomers.

The stoichiometry N is a count of units in the complex or per binding partner.
